Patent US20230051304A1 (Regeneron, published 2023)
Read-outs that look alike come from different tables or passages of the source.

Assays:
Assay in all cases: cell-based or functional assay
[1] = molecular target: T1, murine IL12 receptor complex (IL12Rβ1 and IL12Rβ2) (mouse, UniProt Q60837 20-738; P97378 24-874)
[2] = molecular target: T1, murine IL12 receptor complex (IL12Rβ1 …); remark: listed apart in the source
[3] = molecular target: T1, murine IL12 receptor complex (IL12Rβ1 …); remark: listed apart in the source

T1 sequence (Q60837 20-738, chain 1 of 2): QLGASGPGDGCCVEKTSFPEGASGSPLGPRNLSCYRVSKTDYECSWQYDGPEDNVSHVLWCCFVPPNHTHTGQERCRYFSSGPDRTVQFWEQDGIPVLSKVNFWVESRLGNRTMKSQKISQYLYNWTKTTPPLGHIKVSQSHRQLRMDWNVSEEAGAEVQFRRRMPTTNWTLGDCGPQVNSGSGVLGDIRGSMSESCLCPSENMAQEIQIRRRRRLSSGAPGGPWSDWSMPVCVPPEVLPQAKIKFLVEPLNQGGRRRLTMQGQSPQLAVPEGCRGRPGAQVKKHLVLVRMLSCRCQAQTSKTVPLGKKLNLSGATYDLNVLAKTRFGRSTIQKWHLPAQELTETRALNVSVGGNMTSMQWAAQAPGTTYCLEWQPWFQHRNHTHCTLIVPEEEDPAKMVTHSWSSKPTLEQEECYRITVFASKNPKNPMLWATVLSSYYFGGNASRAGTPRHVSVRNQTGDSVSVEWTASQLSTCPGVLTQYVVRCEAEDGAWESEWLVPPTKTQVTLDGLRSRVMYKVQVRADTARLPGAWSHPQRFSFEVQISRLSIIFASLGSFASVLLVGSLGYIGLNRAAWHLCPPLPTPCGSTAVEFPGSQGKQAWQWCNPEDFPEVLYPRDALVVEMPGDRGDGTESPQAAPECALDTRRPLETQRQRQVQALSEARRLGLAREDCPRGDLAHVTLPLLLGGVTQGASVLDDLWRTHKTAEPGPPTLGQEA
T1 sequence (P97378 24-874, chain 2 of 2): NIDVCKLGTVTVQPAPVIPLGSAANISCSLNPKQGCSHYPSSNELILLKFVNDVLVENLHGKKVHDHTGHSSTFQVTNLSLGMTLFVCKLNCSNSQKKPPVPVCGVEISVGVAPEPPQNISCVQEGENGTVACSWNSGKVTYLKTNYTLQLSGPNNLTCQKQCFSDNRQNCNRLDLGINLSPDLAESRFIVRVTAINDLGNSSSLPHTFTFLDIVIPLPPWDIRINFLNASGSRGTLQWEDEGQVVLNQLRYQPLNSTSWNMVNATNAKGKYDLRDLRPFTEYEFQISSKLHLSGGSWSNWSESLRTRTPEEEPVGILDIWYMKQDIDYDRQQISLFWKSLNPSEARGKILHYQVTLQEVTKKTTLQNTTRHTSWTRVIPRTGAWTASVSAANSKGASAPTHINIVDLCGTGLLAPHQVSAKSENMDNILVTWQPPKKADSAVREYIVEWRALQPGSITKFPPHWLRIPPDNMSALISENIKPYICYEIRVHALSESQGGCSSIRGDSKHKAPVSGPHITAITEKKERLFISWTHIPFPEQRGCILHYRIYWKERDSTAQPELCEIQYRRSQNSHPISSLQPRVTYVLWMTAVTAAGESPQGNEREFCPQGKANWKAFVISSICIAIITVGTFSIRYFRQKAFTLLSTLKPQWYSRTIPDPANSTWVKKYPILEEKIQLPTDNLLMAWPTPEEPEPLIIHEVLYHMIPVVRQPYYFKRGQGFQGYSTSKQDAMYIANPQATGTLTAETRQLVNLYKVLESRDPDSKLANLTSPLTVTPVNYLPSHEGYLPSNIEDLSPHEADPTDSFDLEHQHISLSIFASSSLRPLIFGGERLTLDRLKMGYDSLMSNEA

B1: Bivalent: Fc-IL12(p40-p35) (Fc fusion)
chain: ESKYGPPCPPCPAPPVAGPSVFLFPPKPKDTLMISRTPEVTCVVVDVSQEDPEVQFNWYVDGVEVHNAKTKPREEQFNSTYRVVSVLTVLHQDWLNGKEYKCKVSNKGLPSSIEKTISKAKGQPREPQVYTLPPSQEEMTKNQVSLTCLVKGFYPSDIAVEWESNGQPENNYKTTPPVLDSDGSFFLYSRLTVDKSRWQEGNVFSCSVMHEALHNHYTQKSLSLSLGKGGGGSGGGGSGGGGSMWELEKDVYVVEVDWTPDAPGETVNLTCDTPEEDDITWTSDQRHGVIGSGKTLTITVKEFLDAGQYTCHKGGETLSHSHLLLHKKENGIWSTEILKNFKNKTFLKCEAPNYSGRFTCSWLVQRNMDLKFNIKSSSSSPDSRAVTCGMASLSAEKVTLDQRDYEKYSVSCQEDVTCPTAEETLPIELALEARQQNKYENYSTSFFIRDIIKPDPPKNLQMKPLKNSQVEVSWEYPDSWSTPHSYFSLKFFVRIQRKKEKMKETEEGCNQKGAFLVEKTSTEVQCKGGNVCVQAQDRYYNSSCSKWACVPCRVRSGGGGSGGGGSGGGGSRVIPVSGPARCLSQSRNLLKTTDDMVKTAREKLKHYSCTAEDIDHEDITRDQTSTLKTCLPLELHKNESCLATRETSSTTRGSCLPPQKTSLMMTLCLGSIYEDLKMYQTEFQAINAALQNHNHQQIILDKGMLVAIDELMQSLNHNGETLRQKPPVGEADPYRVKMKLCILLHAFSTRVVTINRVMGYLSSA
- EC50 (M); STAT3-Luc reporter, CTLL2/STAT3-Luc cells [1]: 1.85e-11 M
- Fold induction at 6.25 nM; STAT3-Luc reporter, CTLL2/STAT3-Luc cells [1]: 6.73 fold
- Max fold induction; STAT3-Luc reporter, CTLL2/STAT3-Luc cells [1]: 7.66 fold
- EC50 (M); STAT3-Luc reporter, CTLL2/STAT3-Luc cells [2]: 6.11e-11 M
- Fold induction at 20 nM; STAT3-Luc reporter, CTLL2/STAT3-Luc cells [2]: 12.8 fold
- Max fold induction; STAT3-Luc reporter, CTLL2/STAT3-Luc cells [2]: 14.4 fold
- EC50 (M); STAT3-Luc reporter, CTLL2/STAT3-Luc cells [3]: 9.95e-11 M
- Max fold induction; STAT3-Luc reporter, CTLL2/STAT3-Luc cells [3]: 12.2 fold

B2: Fc-IL12(mutein 15) (Fc fusion)
chain: ESKYGPPCPPCPAPPVAGPSVFLFPPKPKDTLMISRTPEVTCVVVDVSQEDPEVQFNWYVDGVEVHNAKTKPREEQFNSTYRVVSVLTVLHQDWLNGKEYKCKVSNKGLPSSIEKTISKAKGQPREPQVYTLPPSQEEMTKNQVSLTCLVKGFYPSDIAVEWESNGQPENNYKTTPPVLDSDGSFFLYSRLTVDKSRWQEGNVFSCSVMHEALHNHYTQKSLSLSLGKGGGGSGGGGSGGGGSMWELEKDVYVVEVDWTPDAPGETVNLTCDTPEEDDITWTSDQRHGVIGSGKTLTITVKAALDAGQYTCHKGGETLSHSHLLLHAKENGIWSTEILKNFKNKTFLKCEAPNYSGRFTCSWLVQRNMDLKFNIKSSSSSPDSRAVTCGMASLSAEKVTLDQRDYEKYSVSCQEDVTCPTAEETLPIELALEARQQNKYENYSTSFFIRDIIKPDPPKNLQMKPLKNSQVEVSWEYPDSWSTPHSYFSLKFFVRIQRKKEKMKETEEGCNQKGAFLVEKTSTEVQCKGGNVCVQAQDRYYNSSCSKWACVPCRVRSGGGGSGGGGSGGGGSRVIPVSGPARCLSQSRNLLKTTDDMVKTAREKLKHYSCTAEDIDHEDITRDQTSTLKTCLPLELHKNESCLATRETSSTTRGSCLPPQKTSLMMTLCLGSIYEDLKMYQTEFQAINAALQNHNHQQIILDKGMLVAIDELMQSLNHNGETLRQKPPVGEADPYRVKMKLCILLHAFSTRVVTINRVMGYLSSA
- Max fold induction; STAT3-Luc reporter, CTLL2/STAT3-Luc cells [3]: 1.18 fold

B3: Fc-IL12(mutein 16) (Fc fusion)
chain: ESKYGPPCPPCPAPPVAGPSVFLFPPKPKDTLMISRTPEVTCVVVDVSQEDPEVQFNWYVDGVEVHNAKTKPREEQFNSTYRVVSVLTVLHQDWLNGKEYKCKVSNKGLPSSIEKTISKAKGQPREPQVYTLPPSQEEMTKNQVSLTCLVKGFYPSDIAVEWESNGQPENNYKTTPPVLDSDGSFFLYSRLTVDKSRWQEGNVFSCSVMHEALHNHYTQKSLSLSLGKGGGGSGGGGSGGGGSMWELEKDVYVVEVDATPDAPGETVNLTCDTPEEDDITWTSDQRHGVIGSGKTLTITVKEALDAGQYTCHKGGETLSHSHLLLHKKENGIWSTEILKNFKNKTFLKCEAPNYSGRFTCSWLVQRNMDLKFNIKSSSSSPDSRAVTCGMASLSAEKVTLDQRDYEKYSVSCQEDVTCPTAEETLPIELALEARQQNKYENYSTSFFIRDIIKPDPPKNLQMKPLKNSQVEVSWEYPDSWSTPHSYFSLKFFVRIQRKKEKMKETEEGCNQKGAFLVEKTSTEVQCKGGNVCVQAQDRYYNSSCSKWACVPCRVRSGGGGSGGGGSGGGGSRVIPVSGPARCLSQSRNLLKTTDDMVKTAREKLKHYSCTAEDIDHEDITRDQTSTLKTCLPLELHKNESCLATRETSSTTRGSCLPPQKTSLMMTLCLGSIYEDLKMYQTEFQAINAALQNHNHQQIILDKGMLVAIDELMQSLNHNGETLRQKPPVGEADPYRVKMKLCILLHAFSTRVVTINRVMGYLSSA
- EC50 (M); STAT3-Luc reporter, CTLL2/STAT3-Luc cells [3]: 1.67e-08 M
- Max fold induction; STAT3-Luc reporter, CTLL2/STAT3-Luc cells [3]: 2.48 fold

B4: Fc-IL12(mutein 14) (Fc fusion)
chain: ESKYGPPCPPCPAPPVAGPSVFLFPPKPKDTLMISRTPEVTCVVVDVSQEDPEVQFNWYVDGVEVHNAKTKPREEQFNSTYRVVSVLTVLHQDWLNGKEYKCKVSNKGLPSSIEKTISKAKGQPREPQVYTLPPSQEEMTKNQVSLTCLVKGFYPSDIAVEWESNGQPENNYKTTPPVLDSDGSFFLYSRLTVDKSRWQEGNVFSCSVMHEALHNHYTQKSLSLSLGKGGGGSGGGGSGGGGSMWELEKDVYVVEVDWTPDAPGETVNLTCDTPEEDDITWTSDQRHGVIGSGKTLTITVKAALDAGQYTCHKGGETLSHSHLLLHKKENGIWSTEILKNFKNKTFLKCEAPNYSGRFTCSWLVQRNMDLKFNIKSSSSSPDSRAVTCGMASLSAEKVTLDQRDYEKYSVSCQEDVTCPTAEETLPIELALEARQQNKYENYSTSFFIRDIIKPDPPKNLQMKPLKNSQVEVSWEYPDSWSTPHSYFSLKFFVRIQRKKEKMKETEEGCNQKGAFLVEKTSTEVQCKGGNVCVQAQDRYYNSSCSKWACVPCRVRSGGGGSGGGGSGGGGSRVIPVSGPARCLSQSRNLLKTTDDMVKTAREKLKHYSCTAEDIDHEDITRDQTSTLKTCLPLELHKNESCLATRETSSTTRGSCLPPQKTSLMMTLCLGSIYEDLKMYQTEFQAINAALQNHNHQQIILDKGMLVAIDELMQSLNHNGETLRQKPPVGEADPYRVKMKLCILLHAFSTRVVTINRVMGYLSSA
- EC50 (M); STAT3-Luc reporter, CTLL2/STAT3-Luc cells [3]: 3.79e-09 M
- Max fold induction; STAT3-Luc reporter, CTLL2/STAT3-Luc cells [3]: 7.31 fold

B5: Fc-IL12(mutein 17) (Fc fusion)
chain: ESKYGPPCPPCPAPPVAGPSVFLFPPKPKDTLMISRTPEVTCVVVDVSQEDPEVQFNWYVDGVEVHNAKTKPREEQFNSTYRVVSVLTVLHQDWLNGKEYKCKVSNKGLPSSIEKTISKAKGQPREPQVYTLPPSQEEMTKNQVSLTCLVKGFYPSDIAVEWESNGQPENNYKTTPPVLDSDGSFFLYSRLTVDKSRWQEGNVFSCSVMHEALHNHYTQKSLSLSLGKGGGGSGGGGSGGGGSMWELEKDVYVVEVDWTPDAPGETVNLTCDTPEEDDITWTSDQRHGVIGSGKTLTITVKEFLDAGQYTCHKGGETLSHSHLLLHKKENGIWSTAILKNFKNKTFLKCEAPNYSGRFTCSWLVQRNMDLKFNIKSSSSSPDSRAVTCGMASLSAEKVTLDQRDYEKYSVSCQEDVTCPTAEETLPIELALEARQQNAYENYSTSFFIRDIIKPDPPKNLQMKPLKNSQVEVSWEYPDSWSTPHSYFSLKFFVRIQRKKEKMKETEEGCNQKGAFLVEKTSTEVQCKGGNVCVQAQDRYYNSSCSKWACVPCRVRSGGGGSGGGGSGGGGSRVIPVSGPARCLSQSRNLLKTTDDMVKTAREKLKHYSCTAEDIDHEDITRDQTSTLKTCLPLELHKNESCLATRETSSTTRGSCLPPQKTSLMMTLCLGSIYEDLKMYQTEFQAINAALQNHNHQQIILDKGMLVAIDELMQSLNHNGETLRQKPPVGEADPYRVKMKLCILLHAFSTRVVTINRVMGYLSSA
- EC50 (M); STAT3-Luc reporter, CTLL2/STAT3-Luc cells [3]: 3.53e-10 M
- Max fold induction; STAT3-Luc reporter, CTLL2/STAT3-Luc cells [3]: 9.67 fold

B6: Monovalent: IL12*(p35*xp40*)-Fc (Fc fusion)
chain 1: RVIPVSGPARCLSQSRNLLKTTDDMVKTAREKLKHYSCTAEDIDHEDITRDQTSTLKTCLPLELHKNESSLATRETSSTTRGSCLPPQKTSLMMTLCLGSIYEDLKMYQTEFQAINAALQNHNHQQIILDKGMLVAIDELMQSLNHNGETLRQKPPVGEADPYRVKMKLCILLHAFSTRVVTINRVMGYLSSAGGGGSGGGGSGGGGSESKYGPPCPPCPAPPVAGPSVFLFPPKPKDTLMISRTPEVTCVVVDVSQEDPEVQFNWYVDGVEVHNAKTKPREEQFNSTYRVVSVLTVLHQDWLNGKEYKCKVSNKGLPSSIEKTISKAKGQPREPQVYTLPPSQEEMTKNQVSLWCLVKGFYPSDIAVEWESNGQPENNYKTTPPVLDSDGSFFLYSRLTVDKSRWQEGNVFSCSVMHEALHNHYTQKSLSLSLGK
chain 2: MWELEKDVYVVEVDWTPDAPGETVNLTCDTPEEDDITWTSDQRHGVIGSGKTLTITVKEFLDAGQYTCHKGGETLSHSHLLLHKKENGIWSTEILKNFKNKTFLKCEAPNYSGRFTCSWLVQRNMDLKFNIKSSSSSPDSRAVTCGMASLSAEKVTLDQRDYEKYSVSCQEDVTSPTAEETLPIELALEARQQNKYENYSTSFFIRDIIKPDPPKNLQMKPLKNSQVEVSWEYPDSWSTPHSYFSLKFFVRIQRKKEKMKETEEGCNQKGAFLVEKTSTEVQCKGGNVCVQAQDRYYNSSCSKWACVPCRVRSGGGGSGGGGSGGGGSESKYGPPCPPCPAPPVAGPSVFLFPPKPKDTLMISRTPEVTCVVVDVSQEDPEVQFNWYVDGVEVHNAKTKPREEQFNSTYRVVSVLTVLHQDWLNGKEYKCKVSNKGLPSSIEKTISKAKGQPREPQVYTLPPSQEEMTKNQVSLSCAVKGFYPSDIAVEWESNGQPENNYKTTPPVLDSDGSFFLVSRLTVDKSRWQEGNVFSCSVMHEALHNRFTQKSLSLSPGK
- EC50 (M); STAT3-Luc reporter, CTLL2/STAT3-Luc cells [1]: 8.11e-11 M
- Fold induction at 6.25 nM; STAT3-Luc reporter, CTLL2/STAT3-Luc cells [1]: 8.93 fold
- Max fold induction; STAT3-Luc reporter, CTLL2/STAT3-Luc cells [1]: 9.62 fold
